In PMC7189753:

Molecular target: ChuX
Test: AUC

ChuX (natural protein)
percent of the sample as dimer (2.9 S species): 81.3% | percent of the sample as tetramer (4.5 S species): 10.8%
